Data published in patent US20230272055A1 (Incyte, published 2023).
Residue numbers refer to the chain shown, from its start. Numbers in names are those of the source.

B1: anti-mutCALR antibody clone 134 (antibody, human IgG1, lambda, N297A)
heavy: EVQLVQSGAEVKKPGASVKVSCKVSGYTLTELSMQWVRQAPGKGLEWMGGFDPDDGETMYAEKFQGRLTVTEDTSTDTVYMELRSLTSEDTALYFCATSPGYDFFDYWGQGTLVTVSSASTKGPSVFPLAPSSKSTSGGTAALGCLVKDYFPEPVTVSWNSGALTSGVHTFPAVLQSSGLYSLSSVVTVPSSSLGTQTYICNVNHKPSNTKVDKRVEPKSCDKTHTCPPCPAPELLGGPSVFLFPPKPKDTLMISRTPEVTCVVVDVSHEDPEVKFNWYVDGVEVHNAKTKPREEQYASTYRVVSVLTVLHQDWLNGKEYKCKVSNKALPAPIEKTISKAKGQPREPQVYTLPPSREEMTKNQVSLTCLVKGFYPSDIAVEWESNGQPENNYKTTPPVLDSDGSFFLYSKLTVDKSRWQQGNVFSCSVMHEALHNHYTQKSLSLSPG
light: SYVLTQPPSVSVAPGKTARITCGGDNIGSKSVHWYQQKPGQAPVLVVYDDSDRPSGIPERFSGSNSGNTATLTISRVEAGDEADYYCQVWDSSNDLLIFGGGTKLTVLGQPKAAPSVTLFPPSSEELQANKATLVCLISDFYPGAVTVAWKADSSPVKAGVETTTPSKQSNNKYAASSYLSLTPEQWKSHRSYSCQVTHEGSTVEKTVAPTECS
notes: human IgG1 N297A variant of clone 15
B2: anti-mutCALR antibody clone 181 (antibody, human IgG1, lambda, N297A, V domains shown)
VH: EVQLVQSGAEVKKPGASVKVSCKVSGYTLTELSMQWVRQAPGKGLEWMGGFDPDAGETMYAEKFQGRLTVTEDTSTDTVYMELRSLTSEDTALYFCATSPGYDFFDYWGQGTLVTVSS
VL: SYVLTQPPSVSVAPGQTARITCGGSDIGDEIVHWYQQKPGQAPVLVVYDDSDRPSGIPERFSGSNSGNTATLTISRVEAGDEADYYCQVWDSSSDHLIFGGGTKLTVLG
notes: human IgG1 N297A variant of clone 17
B3: anti-mutCALR antibody clone 183 (antibody, human IgG1, lambda, N297A, V domains shown)
VH: B2 VH with A55E
VL: B2 VL
B4: anti-mutCALR antibody clone 174 (antibody, human IgG1, lambda, N297A, V domains shown)
VH: B2 VH with A55D, G56A
VL: B2 VL with V77A, E78Q
B5: anti-mutCALR antibody clone 182 (antibody, human IgG1, lambda, N297A, V domains shown)
VH: B2 VH with A55S
VL: B2 VL
notes: as for B2
B6: anti-mutCALR antibody clone 137 (antibody, human IgG1, lambda, N297A, V domains shown)
VH: B2 VH with A55E
VL: B2 VL with Q16K, S25D, D26N, D29S, E30K, I31S, S94N, H96L
notes: as for B1
B7: anti-mutCALR antibody clone 136 (antibody, human IgG1, lambda, N297A, V domains shown)
VH: B2 VH with A55S
VL: B2 VL with Q16K, S25D, D26N, D29S, E30K, I31S, S94N, H96L
notes: as for B1
B8: anti-mutCALR antibody clone 171 (antibody, human IgG1, lambda, N297A, V domains shown)
VH: B2 VH
VL: B2 VL with V77A, E78Q
notes: as for B2
B9: anti-mutCALR antibody clone 187 (antibody, human IgG1, lambda, N297A, V domains shown)
VH: B2 VH with A55S, R84S, T87R, L93V
VL: B2 VL
notes: as for B2
B10: anti-mutCALR antibody clone 173 (antibody, human IgG1, lambda, N297A, V domains shown)
VH: B2 VH with A55E
VL: B2 VL with V77A, E78Q
B11: anti-mutCALR antibody clone 172 (antibody, human IgG1, lambda, N297A, V domains shown)
VH: B2 VH with A55S
VL: B2 VL with V77A, E78Q
notes: as for B2
B12: anti-mutCALR antibody clone 139 (antibody, human IgG1, lambda, N297A, V domains shown)
VH: B2 VH with A55D, R84S, T87R, L93V
VL: B2 VL with Q16K, S25D, D26N, D29S, E30K, I31S, S94N, H96L
notes: as for B1
B13: anti-mutCALR antibody clone 135 (antibody, human IgG1, lambda, N297A, V domains shown)
VH: B2 VH
VL: B2 VL with Q16K, S25D, D26N, D29S, E30K, I31S, S94N, H96L
notes: as for B1
B14: anti-mutCALR antibody clone 170 (antibody, human IgG1, lambda, N297A)
heavy: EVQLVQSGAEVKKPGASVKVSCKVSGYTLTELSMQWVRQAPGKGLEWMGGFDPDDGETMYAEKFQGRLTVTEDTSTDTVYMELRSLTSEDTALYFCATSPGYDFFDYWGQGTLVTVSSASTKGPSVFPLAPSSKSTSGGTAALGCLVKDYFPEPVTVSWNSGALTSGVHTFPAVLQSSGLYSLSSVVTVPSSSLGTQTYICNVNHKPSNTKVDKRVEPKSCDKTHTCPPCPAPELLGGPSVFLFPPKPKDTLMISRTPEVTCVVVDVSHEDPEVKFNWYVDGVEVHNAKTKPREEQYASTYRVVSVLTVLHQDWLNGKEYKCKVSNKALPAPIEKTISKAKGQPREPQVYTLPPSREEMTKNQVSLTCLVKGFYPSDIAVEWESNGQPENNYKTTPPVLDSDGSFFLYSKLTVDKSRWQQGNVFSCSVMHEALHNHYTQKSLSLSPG
light: B1 light with K16Q, D25S, N26D, S29D, K30E, S31I, V77A, E78Q, N94S, L96H
notes: as for B2
B15: anti-mutCALR antibody clone 180 (antibody, human IgG1, lambda, N297A, V domains shown)
VH: B2 VH with A55D
VL: B2 VL
notes: as for B2
B16: anti-mutCALR antibody clone 185 (antibody, human IgG1, lambda, N297A, V domains shown)
VH: B2 VH with A55D, R84S, T87R, L93V
VL: B2 VL
notes: as for B2
B17: anti-mutCALR antibody clone 141 (antibody, human IgG1, lambda, N297A, V domains shown)
VH: B2 VH with A55S, R84S, T87R, L93V
VL: B2 VL with Q16K, S25D, D26N, D29S, E30K, I31S, S94N, H96L
notes: as for B1
B18: anti-mutCALR antibody clone 140 (antibody, human IgG1, lambda, N297A, V domains shown)
VH: B2 VH with R84S, T87R, L93V
VL: B2 VL with Q16K, S25D, D26N, D29S, E30K, I31S, S94N, H96L
notes: as for B1
B19: anti-mutCALR antibody clone 143 (antibody, human IgG1, lambda, N297A, V domains shown)
VH: B2 VH with A55D, G56A, R84S, T87R, L93V
VL: B2 VL with Q16K, S25D, D26N, D29S, E30K, I31S, S94N, H96L
notes: as for B1
B20: anti-mutCALR antibody clone 142 (antibody, human IgG1, lambda, N297A, V domains shown)
VH: B2 VH with A55E, R84S, T87R, L93V
VL: B2 VL with Q16K, S25D, D26N, D29S, E30K, I31S, S94N, H96L
notes: as for B1
B21: anti-mutCALR antibody clone 188 (antibody, human IgG1, lambda, N297A, V domains shown)
VH: B2 VH with A55E, R84S, T87R, L93V
VL: B2 VL
notes: as for B2
B22: anti-mutCALR antibody clone 138 (antibody, human IgG1, lambda, N297A, V domains shown)
VH: B2 VH with A55D, G56A
VL: B2 VL with Q16K, S25D, D26N, D29S, E30K, I31S, S94N, H96L
notes: as for B1
B23: anti-mutCALR antibody clone 184 (antibody, human IgG1, lambda, N297A, V domains shown)
VH: B2 VH with A55D, G56A
VL: B2 VL
notes: as for B2
B24: anti-mutCALR antibody clone 189 (antibody, human IgG1, lambda, N297A, V domains shown)
VH: B2 VH with A55D, G56A, R84S, T87R, L93V
VL: B2 VL
B25: anti-mutCALR antibody clone 186 (antibody, human IgG1, lambda, N297A, V domains shown)
VH: B2 VH with R84S, T87R, L93V
VL: B2 VL
notes: as for B2
B26: anti-mutCALR antibody clone 55 (antibody, human IgG1, lambda, N297A)
heavy: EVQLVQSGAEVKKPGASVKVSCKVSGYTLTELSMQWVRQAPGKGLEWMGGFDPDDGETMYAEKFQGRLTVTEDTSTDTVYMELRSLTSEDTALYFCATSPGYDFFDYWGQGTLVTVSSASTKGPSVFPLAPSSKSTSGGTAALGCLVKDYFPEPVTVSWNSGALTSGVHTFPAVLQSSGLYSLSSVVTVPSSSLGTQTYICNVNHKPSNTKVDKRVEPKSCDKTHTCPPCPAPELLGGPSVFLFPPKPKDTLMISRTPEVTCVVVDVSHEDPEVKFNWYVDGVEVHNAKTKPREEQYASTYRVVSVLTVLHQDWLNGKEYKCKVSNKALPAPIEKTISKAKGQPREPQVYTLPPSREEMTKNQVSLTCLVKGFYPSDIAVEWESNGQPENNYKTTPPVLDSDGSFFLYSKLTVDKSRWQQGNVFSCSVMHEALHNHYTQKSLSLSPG
light: QSALTQPASVSGSPGQSITISCTGTSSDVGGYNYVSWYQQHPGKAPKLMIYEVSNRPSGVSNRFSGSNSGNTATLTINRVEAGDEADYYCQVWDSSNDLLIFGGGTKLTVLGQPKAAPSVTLFPPSSEELQANKATLVCLISDFYPGAVTVAWKADSSPVKAGVETTTPSKQSNNKYAASSYLSLTPEQWKSHRSYSCQVTHEGSTVEKTVAPTECS
notes: human IgG1 N297A variant of clone 6; also called antibody 55
B27: anti-mutCALR antibody clone 58 (antibody, human IgG1, lambda, N297A, V domains shown)
VH: B2 VH with A55E
VL: QSALTQPASVSGSPGQSITISCTGTSSDVGGYNYVSWYQQHPGKAPKLMIYEVSNRPSGVSNRFSGSNSGNTATLTINRVEAGDEADYYCQVWDSSNDLLIFGGGTKLTVLG
notes: human IgG1 N297A variant of clone 6
B28: anti-mutCALR antibody clone 59 (antibody, human IgG1, lambda, N297A, V domains shown)
VH: B2 VH with A55D, G56A
VL: B27 VL
notes: as for B27
B29: anti-mutCALR antibody clone 56 (antibody, human IgG1, lambda, N297A, V domains shown)
VH: B2 VH
VL: B27 VL
notes: as for B27
B30: anti-mutCALR antibody clone 60 (antibody, human IgG1, lambda, N297A, V domains shown)
VH: B2 VH with A55D, R84S, T87R, L93V
VL: B27 VL
notes: as for B27
B31: anti-mutCALR antibody clone 61 (antibody, human IgG1, lambda, N297A, V domains shown)
VH: B2 VH with R84S, T87R, L93V
VL: B27 VL
notes: as for B27
B32: anti-mutCALR antibody clone 57 (antibody, human IgG1, lambda, N297A, V domains shown)
VH: B2 VH with A55S
VL: B27 VL
notes: as for B27

Target: T1, Recombinant MBP-mutCALR Type 1 fusion protein (human)
T1 construct: custom made at Cepter; also called recombinant mutCALR protein
Assay: SPR, IgG captured, 1:1 fit, Exp. 2
Method: Experiment 2: Recombinant MBP-mutCALR Type 1 fusion protein was custom made at Cepter (cepterbiopartners.com). Data for the interaction of antibodies with recombinant mutCALR protein were collected at 25° C. on a Biacore 8K instrument (Cytiva, Marlborough, Mass.), and all reagents were obtained from Cytiva unless otherwise specified. The experiments were conducted using Tris-buffered saline (pH 7.2), 0.005% Surfactant P20, 1 mM CaCl₂) as running buffer. To prepare the capture surfaces, anti-human IgG (Fc) antibodies (Product #29234600) was amine-coupled onto a CM4 chip (Product #BR100534) under standard conditions using an Amine Coupling Kit (Product #BR100050). […] The kinetics parameters were obtained by applying 1:1 binding model to fit the data from multiple-cycle injection experiments using Biacore Insight Evaluation software.

| Binder | Kd | koff | kon |
| --- | --- | --- | --- |
| B1 | 1.12 nM | 0.00142 s⁻¹ | 1.27e+06 M⁻¹ s⁻¹ |
| B2 | 1.58 nM | 0.0209 s⁻¹ | 1e+07 M⁻¹ s⁻¹ |
| B3 | 1 nM | 0.00124 s⁻¹ | 1.23e+06 M⁻¹ s⁻¹ |
| B4 | 0.526 nM | 0.0041 s⁻¹ | 7.8e+06 M⁻¹ s⁻¹ |
| B5 | 1.23 nM | 0.00692 s⁻¹ | 5.62e+06 M⁻¹ s⁻¹ |
| B6 | 1.27 nM | 0.0095 s⁻¹ | 7.51e+06 M⁻¹ s⁻¹ |
| B7 | 6.7 nM | 0.00507 s⁻¹ | 756000 M⁻¹ s⁻¹ |
| B8 | 1.65 nM | 0.0109 s⁻¹ | 6.57e+06 M⁻¹ s⁻¹ |
| B9 | 1.59 nM | 0.0163 s⁻¹ | 1e+07 M⁻¹ s⁻¹ |
| B10 | 0.653 nM | 0.00349 s⁻¹ | 5.35e+06 M⁻¹ s⁻¹ |
| B11 | 2.24 nM | 0.0025 s⁻¹ | 1.12e+06 M⁻¹ s⁻¹ |
| B12 | 0.966 nM | 0.000953 s⁻¹ | 987000 M⁻¹ s⁻¹ |
| B13 | 5.17 nM | 0.00512 s⁻¹ | 991000 M⁻¹ s⁻¹ |
| B14 | 0.419 nM | 0.00179 s⁻¹ | 4.27e+06 M⁻¹ s⁻¹ |
| B15 | 0.198 nM | 0.127 s⁻¹ | > 1e+07 M⁻¹ s⁻¹ |
| B16 | 0.171 nM | 0.000911 s⁻¹ | 5.32e+06 M⁻¹ s⁻¹ |

| Binder | Kd | koff | kon |
| --- | --- | --- | --- |
| B17 | 4.47 nM | 0.0187 s⁻¹ | 4.18e+06 M⁻¹ s⁻¹ |
| B18 | 7.09 nM | 0.00541 s⁻¹ | 763000 M⁻¹ s⁻¹ |
| B19 | 1.31 nM | 0.00753 s⁻¹ | 5.74e+06 M⁻¹ s⁻¹ |
| B20 | 2.27 nM | 0.00269 s⁻¹ | 1.19e+06 M⁻¹ s⁻¹ |
| B21 | 1.65 nM | 0.00121 s⁻¹ | 732000 M⁻¹ s⁻¹ |
| B22 | 0.875 nM | 0.00688 s⁻¹ | 7.86e+06 M⁻¹ s⁻¹ |
| B23 | 1.57 nM | 0.000673 s⁻¹ | 428000 M⁻¹ s⁻¹ |
| B24 | 0.422 nM | 0.0153 s⁻¹ | > 1e+07 M⁻¹ s⁻¹ |
| B25 | 2.86 nM | 0.00243 s⁻¹ | 848000 M⁻¹ s⁻¹ |
| B26 | 0.171 nM | 0.000911 s⁻¹ | 5.32e+06 M⁻¹ s⁻¹ |
| B27 | 0.343 nM | 0.00232 s⁻¹ | 6.76e+06 M⁻¹ s⁻¹ |
| B28 | 1.44 nM | 0.00136 s⁻¹ | 945000 M⁻¹ s⁻¹ |
| B29 | 3.08 nM | 0.00212 s⁻¹ | 690000 M⁻¹ s⁻¹ |
| B30 | 1.15 nM | 0.00166 s⁻¹ | 1.44e+06 M⁻¹ s⁻¹ |
| B31 | 0.893 nM | 0.00369 s⁻¹ | 4.13e+06 M⁻¹ s⁻¹ |
| B32 | 0.637 nM | 0.0039 s⁻¹ | 6.12e+06 M⁻¹ s⁻¹ |
